Data on 19 sequences can be found in the DeepSol protein solubility set.

A short description of this series: soluble on expression in E. coli; label from the status in PepcDB or PDB records.
Take “MSSQKVFGITGPVSTVGATAAENKLNDSLIQELKKEGSFETEQETANRVQVLKILQELAQRFVYEVSKKKNMSDGMARDAGGKIFTYGSYRLGVHGPGSDIDTLVVVPKHVTREDFFTVFDSLLRERKELDEIAPVPDAFVPIIKIKFSGISIDLICARLDQPQVPLSLTLSDKNLLRNLDEKDLRALNGTRVTDEILELVPKPNVFRIALRAIKLWAQRRAVYANIFGFPGGVAWAMLVARICQLYPNACSAVILNRFFIILSEWNWPQPVILKPIEDGPLQVRVWNPKIYAQDRSHRMPVITPAYPSMCATHNITESTKKVILQEFVRGVQITNDIFSNKKSWANLFEKNDFFFRYKFYLEITAYTRGSDEQHLKWSGLVESKVRLLVMKLEVLAGIKIAHPFTKPFESSYCCPTEDDYEMIQDKYGSHKTETALNALKLVTDENKEEESIKDAPKAYLSTMYIGLDFNIENKKEKVDIHIPCTEFVNLCRSFNEDYGDHKVFNLALRFVKGYDLPDEVFDENEKRPSKKSKRKNLLEHHHHHH”: the “soluble on expression in E. coli” value is given as “soluble”.

With “MSSQMKAFLNELQGNMEVVGEFFDNPEKVIRKFGIVGREKEALLIRDLNDMDDYALSIQNSVASPSGAHSSTCHFVRQDLQSA”, the “soluble on expression in E. coli” value is “not soluble”.

“MSSQTILSVNNLSVSFTTNDGIVDAVKNVSFELQAGETLSIVGESGSGKSVSTNALMTLLPDNAIVHPDSSIMFEGESILDKTERQMQRIRGDRIGMIFQEPMTSLNPYMRVGIQVAEAMMCHRSVNQRKAKERVLELFDLVHLPNPQQAYDKYPHEFSGGQLQRIMIAMALINEPDILIADEPTTALDVTVQAEVLLLIKEIQAKMGMAILFITHDLGVVKHFADRVLVMCKGEVVEEGITEHLFSEPQHEYTKMLINSIPKGSKTPVDEKASELLNAEDIR”: the “soluble on expression in E. coli” value is given as “not soluble”.

For the sequence “MSSRGVTAPQGFVAAGATAGIKPSGNKDMALVVNQGPEFVGAAVFTRNRVVASPVKYTKKAVANGTLRAVLYNSGNANACNGVQGDKDVHEIVDYLASKLKVDPLDIAACSTGLIGEPLPVTMIKAGVDKLIPALGDNGGEAADSIMTTDTVAKETVVKCNGWTLGGMGKGVGMMAPSLATMLVCLTTDACVTQAQAHAALSKACDVTFNTLDIDGSTSTNDTVILLANGASGITPTESEFNDAVLQACADIADQLQADAEGVTKRVRITVTGTTTDSQALNAARTLGRDNLFKCAMFGSDPNWGRVLAAVGMADADMDPDNISVYFNDQPVCLQSGGTPEARQVDLSGIDIDVRVDLGTGGPGKAFVRTTDLSHQYVEINSAYSSLEHHHHHH”, the “soluble on expression in E. coli” value is on record as “not soluble”.

As for “MSSRQGGKMKPLKQKKKQQQDLDPEDIAFKEKQKADAAAKKALMANMKSGKPLVGGGIKKSGKK”, the “soluble on expression in E. coli” value was “soluble”.

Take “MSSSSSSRIHNGEDVYEKAEEYWSRASQDVNGMLGGFEALHAPDISASKRFIEGLKKKNLFGYFDYALDCGAGIGRVTKHLLMPFFSKVDMEDVVEELITKSDQYIGKHPRIGDKFVEGLQTFAPPERRYDLIWIQWVSGHLVDEDLVDFFKRCAKGLKPGGCIVLKDNVTNHEKRLFDDDDHSWTRTEPELLKAFADSQLDMVSKALQTGFPKEIYPVKMYALKPQHTGFTNN”: the “soluble on expression in E. coli” value is on record as “not soluble”.

Consider “MSSSTTDDDSCSYFFFRQACLIPTPSVPTHPSVSIKIYPPFAEFIDFGGASRHILTNNGTCRIVFKVKCSNNLVFKVSPVYAFLDPGATAELQVLRREGPPKHDKLIISLKEAKKGDKDPRVTFNDSTHTTHKHILPLLTRIVEEQ”, for which the “soluble on expression in E. coli” value is listed as “not soluble”.

As for “MSSTAVVPSAPGPGPGPSGGPGGGTEVIQVTNVSPSASSEQMRTLFGFLGKIDELRLFPPDDSPLPVSSRVCFVKFHDPDSAVVAQHLTNTVFVDRALIVVPYAEGVIPDETKALSLLAPANAVAGLLPGGGLLPTPNPLTQIGAVPLAALGAPALDPALAALGLPGTNLNSQSLAADQLLKLMSTVDPKLNHVAAGLVSPSLKSDTSSKEIEEAMKRVREAQSLISAAIEPDKKEEKRRHSRSRSRSRRRRTPSSSRHRRSRSRSRRRSHSKSRSRRRSKSPRRRRSHSRERGRRSRSTSKARD”, the “soluble on expression in E. coli” value is listed as “soluble”.

“MSSVAPSVRLFFALWPQEAVRKQLARLARRIADQCAGRCVRPENLHLTLAFIGEVDSSVVPILRQAGSAIHRTSFDLLLDKLHCWGKGSIIAAGVSQPCGELTVLVQDLRNQLSAAGVRYDTVKFVPHVTLVRNAKREPEQKHFPETIPPVAWAADRWSLVQSRPTPYGSAYQSFADWALASQDFDEHHRA”: the “soluble on expression in E. coli” value is given as “not soluble”.

With “MSSVKRSLKQEIVTQFHCSAAEGDIAKLTGILSHSPSLLNETSENGWTALMYAARNGHPEIVQFLLEKGCDRSIVNKSRQTALDIAVFWGYKHIANLLATAKGGKKPWFLTNEVEECENYFSKTLLDRKSEKRNNSDWLLAKESHPATVFILFSDLNPLVTLGGNKESFQQPEVRLCQLNYTDIKDYLAQPEKITLIFLGVELEIKDKLLNYAGEVPREEEDGLVAWFALGIDPIAAEEFKQRHENCYFLHPPMPALLQLKEKEAGVVAQARSVLAWHSRYKFCPTCGNATKIEEGGYKRLCLKEDCPSLNGVHNTSYPRVDPVVIMQVIHPDGTKCLLGRQKRFPPGMFTCLAGFIEPGETIEDAVRREVEEESGVKVGHVQYVACQPWPMPSSLMIGCLALAVSTEIKVDKNEIEDARWFTREQVLDVLTKGKQQAFFVPPSRAIAHQLIKHWIRINPNL”, the “soluble on expression in E. coli” value is recorded as “soluble”.

As to “MSTCPIDPPALRAAFAGPLDPQHAEVLLSRYDQHASRLLDALHALYGQRADYASWLAQWLGEVGDIARQRPQALQTLDSTRHAGWFGQPHMLGYSAYADRFAGTLQGVAERVPYLQELGVRYLHLLPFLRARAGDNDGGFAVSDYGQVEPSLGSNDDLVALTSRLREAGISLCADFVLNHTADDHAWAQAARAGDARYLDYYHHFADRTVPDRYEATLGQVFPHTAPGNFTWVDDTAQWMWTTFYPYQWDLNWSNPAVFGDMALAMLRLANLGVEAFRLDSTAYLWKRIGTDCMNQSEAHTLLVALRAVTDIVAPAVVMKAQAIVPMTQLPPYFGSGVDEGHECHLAYHSTLMAAGWSALALQRGDILHNVIAHSPPLPRHCAWLSYVRCHDDIGWNVLQHEACGNAAQPPFSLRDVARFYANAVPGSYARGESFQSSGDGVHGTNGMAAALAGIQAAQEAGDAAALAVAVDRLVLLYAIALAMPGVPLIYMGDELAMVNDPGYRDDPHRQHEGRWLHRPAMDWQLAAQRHDAKSLSGTVYRRLRGLIRQRAALGALAADQALASIALNDPRVFALTRGDSFIALHNFSDQLLDVELAAIGVDGWTLLAIDDAIGGAAARGDGSIVLPPYGVRWLQRGTEHAPE”, the “soluble on expression in E. coli” value is “soluble”.

Regarding “MSTLRVACVIPTYNGCQDLARLLDSLEIQSAPFDTLIVDSSSSDGTYELALARCANVLRIDSRDFNHGGTRQLMVERNADYDLYVFMTQDAYLEDAEGLARIVAPFADPQVGAVCGRQLPHLDASPLASHARLFNYPPTSQVKSLADVPALGIKTAFMSNSFSAYRREALMQVGGFPNHVILSEDMYVGAKMLLAGWKVAYEGSACCRHSHNYSLKEEFRRYFDIGVFHAREPWIRQAFGGAGGEGLRYVQSELRFLGPGRLGQWPGSLLRNAVKLFAYKLSQQERYLPLGLKRKLGMYKRYWDSPYALEHHHHHH”, the “soluble on expression in E. coli” value was “soluble”.

Consider “MSTLYHTCDKIEQRIIWIDCEMTGLDVEKQTLCEIALIVTDSELNTIATGPDIVIHQPKEVLDNMEEWPRNTFHENGLMEKIIASKYSMADAENEVIDFLKLHALPGKSPIAGNSIYMDRLFIKKYMPKLDKFAHYRCIDVSTIKGLVQRWYPDYKHPKKQCTHRAFDDIMESIAELKNYRESIFVKSTASSF”, for which the “soluble on expression in E. coli” value is recorded as “not soluble”.

Regarding “MSTPIIPWMGGKRRLADRLIPLFPPHECYVEVFAGGAALYFMRPQAAPVEVLNDINGDLVNLYRVVQNHLEEFVRQFKWALSSRQVFEWQKMTRPETLTDIQRAARFFYLQHHAFAGKVSGQTFGTATTGPAINLLRIEENLSAAWQRLSGTYVENLPWLECAERYDRPQTFHYMDPPYWQTAGYGVDYPFENYERMADFMRTCKGKVMVSINDHPDIRRVFEEFHFETVDIRYTSSNQRRGRTDVVGELVIMNWEP”, the “soluble on expression in E. coli” value is “not soluble”.

Turning to “MSTQMSVFLSTQAAQPQWGEKALISFAEQGATIHLQQTQDFSAIQRAARKLDNQGIRTAFLAGEGWDLESIWAFYQGYRDAKKRNTVEWKALAAAEQVELEARIKATDWTRDIINKSAEEVAPRQLATMAAEFIKSLAPDHVSYRIVKDKDLLTEGWEGIYAVGRGSERTSAMLQLDYNPTGDENAPVFACLVGKGITFDSGGYSLKPSNMMSAMKADMGGSGMITGALGLAIMRGFNKRVKLILCCAENMVSGRALKLGDIITYKNGKTVEIMNTDAEGRLVLADGLIYASEQKPQLIIDCATLTGAAKNALGNDYHALLSYDESLSQQALAAAKEENEALWALPLAEFHREMLPSNFADLSNISNGDYTPGASTAAAFLSYFVEGYQKGWLHFDCSATYRKSASDKWAAGATGMGVKMLARILMQQA”, the “soluble on expression in E. coli” value is recorded as “not soluble”.

Regarding “MSTQSILTKPTEATAFQPDQVVRILETVLLTTPEPLSISDLKKLFEGNIDKKTLHESLTILSEKWHDSGINLVSVAGGWRFQSKPEMQVFLDRLNPQRPPRYSRAVMETLAIIAYRQPVTRGDIEEIRGVAVSTQIIKTLESRGWIETIGQRDIPGKPYLYATTRHFLDDLNLQSLEQLPSLDSFNSLDLSADEAESVDTDTTTIQESGEPASHEPTQLL”, the “soluble on expression in E. coli” value was “not soluble”.

“MSTRPEVFDLIVIGGGPGGSTLASFVAMRGHRVLLLEREAFPRHQIGESLLPATVHGICAMLGLTDEMKRAGFPIKRGGTFRWGKEPEPWTFGFTRHPDDPYGFAYQVERARFDDMLLRNSERKGVDVRERHEVIDVLFEGERAVGVRYRNTEGVELMAHARFIVDASGNRTRVSQAVGERVYSRFFQNVALYGYFENGKRLPAPRQGNILSAAFQDGWFWYIPLSDTLTSVGAVVSREAAEAIKDGHEAALLRYIDRCPIIKEYLAPATRVTTGDYGEIRIRKDYSYCNTSFWKNGMALVGDAACFVDPVFSSGVHLATYSALLVARAINTCLAGEMSEQRCFEEFERRYRREYGNFYQFLVAFYDMNQDTDSYFWSARKIINTEERANEAFVRLIAGRSNLDEPVFQSVAKDFFTEREGFGAWFGGLVTSMAKGDGGGLMVGEGATDATESTGFAPENFMQGFTREITELQHLAMFGEDRGPETPLWSGGLVPSRDGLAWAVESGEDAAG”: the “soluble on expression in E. coli” value is “soluble”.

Turning to “MSTSEDKPEIISRVVHQEGDVEIVDRSQKDKDEEKEEGKGGFLDKVKDFIHDIGEKLEGTIGFGKPTADVSAIHIPKINLERADIVVDVLVKNPNPVPIPLIDVNYLVESDGRKLVSGLIPDAGTLKAHGEETVKIPLTLIYDDIKSTYNDINPGMIIPYRIKVDLIVDVPVLGRLTLPLEKCGEIPIPKKPDVDIEKIKFQKFSLEETVAILHVRLQNMNDFDLGLNDLDCEVWLCDVSIGKAEIADSIKLDKNGSGLINVPMTFRPKDFGSALWDMIRGKGTGYTIKGNIDVDTPFGAMKLPIIKEGGETRLKKEDDDDDDEE”, the “soluble on expression in E. coli” value is “soluble”.

With “MSTTAEETPTQALPTQTRTLTGWGRTAPTTAQVLSTPDVEVIARAVAQVAEQNESKPAHLQRGVIARGLGRSYGDPAQNAGGLVIDMNALNRIHRIDRDTHLVEVDAGVNLDQLMKAALPFGLWVPVLPGTRQVTIGGAIGSDIHGKNHHSAGSFGNHVVSLDLLTADGKVRTLTPKGGRNDPKGALFWATIGGMGLTGIILKATIKMTPTETAYFIADGDVTQTLDETIALHSDGSESNYEYSSAWFDAIAAPPKLGRAAISRGSLAKLDQLPAKLQKNPLAFDAPQLLTFPDVFPNGLANKFNFSMIGELWFRKSGTYRDKVQNLTQFYHPLDMFGEWNRAYGSNGFLQYQFVVPTTAVEEFKAIIRDIQKSGHYSFLNVFKLFGEGNQAPLSFPIPGWNICVDFRIKPGLNEFVTELDKRVLKFGGRLYTAKDSRTTAETFHAMYPRIDEWIATRRKYDPTNVFASDMSRRLEL”, the “soluble on expression in E. coli” value is “not soluble”.
